Each binder was assayed against T1, antigen (11A12) containing the ED-A domain of human fibronectin (human, UniProt P02751 1629-1905) (assay: SPR (BIAcore), monomeric scFv over 11A12 immobilised on CM5 chip).
T1 construct: Immobilised on a CM5 chip by amine coupling
Procedure: The kₒₙ, koff and KD of the parent anti-ED-A antibody and anti-ED-A antibodies B2, C5, D5, C8, F8, B7 and G9 were evaluated using Surface Plasmon Resonance. The chip was equilibrated over night with the same buffer used during the assay at a buffer flow rate of 5 μl/min. The whole coating procedure was performed at this flow rate. The antigen 11A12 was diluted 1:25 with acetate buffer pH 4.00 (provided by BIACORE) to a final concentration of 20 μg/ml. The NHS and EDC were then mixed and 50 μl injected to activate the COOH groups on the CM5 chip. This was followed by injection of 40 μl of the antigen (this lasts about 40″). Then 30 μl of Ethanolammine were injected in order to block the reactivity of eventual free COOH.
Each sample was assayed at a flow rate 20 μl/min. 20 μl of undiluted monomeric protein (as it comes out from the gel filtration) was injected. The dissociation time was left to run for about 200″. Then 10 μl of HCl 10 mM was injected to regenerate the chip. The injection of monomeric protein was repeated at different dilutions, i.e. 1:2 dilution (in PBS) followed by regeneration with HCl. This was followed by a third injection of the protein, at a dilution of 1:4 followed again by regeneration with HCl. The kₒₙ, koff and KD values for each anti-ED-A antibody were evaluated using the BIAevaluation software.

T1 sequence (P02751 other isoform, or with tags, fused parts or gaps limits assumed): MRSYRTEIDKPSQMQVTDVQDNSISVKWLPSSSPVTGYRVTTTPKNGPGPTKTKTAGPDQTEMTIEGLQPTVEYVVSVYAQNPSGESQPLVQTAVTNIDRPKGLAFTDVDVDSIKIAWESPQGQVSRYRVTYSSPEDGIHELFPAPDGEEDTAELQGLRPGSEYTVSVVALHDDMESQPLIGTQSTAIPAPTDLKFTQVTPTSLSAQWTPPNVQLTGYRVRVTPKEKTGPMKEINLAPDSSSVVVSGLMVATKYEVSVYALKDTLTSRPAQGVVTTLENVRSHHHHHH

Binder | Kd [nM] | koff [s⁻¹] | kon [M⁻¹ s⁻¹]
anti-ED-A antibody B7 (scFv, scFv; Supernatant in BIAcore analysis 1, purified monomeric fraction in BIAcore analysis 2) scFv: EVQLVESGGGLVQPGGSLRLSCAASGFTFSHFDMSWVRQAPGKGLEWVSAISGSGGSTYYADSVKGRFTISRDNSKNTLYLQMNSLRAEDTAVYYCAKSTHLYLFDYWGQGTLVTVSSGGGGSGGGGSGGGGSGGGGSEIVLTQSPGTLSLSPGEKATLSCRASQSVSLAFLAWYQQKPGQAPRLLIYGASSRATGIPDRFSGSGSGTDFTLTISRLEPEDFAVYYCQQMRGRPPTFGQGTKVEIKAAAEQKLISEEDLNGAA | ~16.8 | 0.0045 | 267000
anti-ED-A antibody D5 (scFv, scFv; Supernatant in BIAcore analysis 1, purified monomeric fraction in BIAcore analysis 2) scFv: EVQLVESGGGLVQPGGSLRLSCAASGFTFSVMKMSWVRQAPGKGLEWVSAISGSGGSTYYADSVKGRFTISRDNSKNTLYLQMNSLRAEDTAVYYCAKSTHLYLFDYWGQGTLVTVSSGGGGSGGGGSGGGGSGGGGSEIVLTQSPGTLSLSPGEKATLSCRASQSVSNAFLAWYQQKPGQAPRLLIYGASSRATGIPDRFSGSGSGTDFTLTISRLEPEDFAVYYCQQMRGRPPTFGQGTKVEIKAAAEQKLISEEDLNGAA | ~17 | 0.0076 | 453000
anti-ED-A antibody F8 (scFv, scFv format, not the F8 diabody; Supernatant in BIAcore analysis 1, purified monomeric fraction in BIAcore analysis 2; also called anti-ED-A scFv F8) scFv: EVQLVESGGGLVQPGGSLRLSCAASGFTFSLFTMSWVRQAPGKGLEWVSAISGSGGSTYYADSVKGRFTISRDNSKNTLYLQMNSLRAEDTAVYYCAKSTHLYLFDYWGQGTLVTVSSGGGGSGGGGSGGGGSGGGGSEIVLTQSPGTLSLSPGEKATLSCRASQSVSMPFLAWYQQKPGQAPRLLIYGASSRATGIPDRFSGSGSGTDFTLTISRLEPEDFAVYYCQQMRGRPPTFGQGTKVEIKAAAEQKLISEEDLNGAA | ~3.1 | 0.0014 | 465000
anti-ED-A antibody G9 (scFv, scFv; Supernatant in BIAcore analysis 1, purified monomeric fraction in BIAcore analysis 2) scFv: EVQLVESGGGLVQPGGSLRLSCAASGFTFSHMQMSWVRQAPGKGLEWVSAISGSGGSTYYADSVKGRFTISRDNSKNTLYLQMNSLRAEDTAVYYCAKSTHLYLFDYWGQGTLVTVSSGGGGSGGGGSGGGGSGGGGSEIVLTQSPGTLSLSPGEKATLSCRASQSVSTAFLAWYQQKPGQAPRLLIYGASSRATGIPDRFSGSGSGTDFTLTISRLEPEDFAVYYCQQMRGRPPTFGQGTKVEIKAAAEQKLISEEDLNGAA | ~20.9 | 0.00754 | 360000
anti-ED-A antibody C8 (scFv, scFv; Supernatant in BIAcore analysis 1, purified monomeric fraction in BIAcore analysis 2) scFv: EVQLVESGGGLVQPGGSLRLSCAASGFTFSLQTMSWVRQAPGKGLEWVSAISGSGGSTYYADSVKGRFTISRDNSKNTLYLQMNSLRAEDTAVYYCAKSTHLYLFDYWGQGTLVTVSSGGGGSGGGGSGGGGSGGGGSEIVLTQSPGTLSLSPGEKATLSCRASQSVSLPFLAWYQQKPGQAPRLLIYGASSRATGIPDRFSGSGSGTDFTLTISRLEPEDFAVYYCQQMRGRPPTFGQGTKVEIKAAAEQKLISEEDLNGAA | ~14 | 0.0053 | 380000
anti-ED-A antibody B2 (scFv, scFv; Supernatant in BIAcore analysis 1, purified monomeric fraction in BIAcore analysis 2) scFv: EVQLVESGGGLVQPGGSLRLSCAASGFTFSAAKMSWVRQAPGKGLEWVSAISGSGGSTYYADSVKGRFTISRDNSKNTLYLQMNSLRAEDTAVYYCAKSTHLYLFDYWGQGTLVTVSSGGGGSGGGGSGGGGSGGGGSEIVLTQSPGTLSLSPGEKATLSCRASQSVSVAFLAWYQQKPGQAPRLLIYGASSRATGIPDRFSGSGSGTDFTLTISRLEPEDFAVYYCQQMRGRPPTFGQGTKVEIKAAAEQKLISEEDLNGAA | ~20 | 0.00754 | 380000
anti-ED-A antibody C5 (scFv, scFv; Supernatant in BIAcore analysis 1, purified monomeric fraction in BIAcore analysis 2) scFv: EVQLVESGGGLVQPGGSLRLSCAASGFTFSPITMSWVRQAPGKGLEWVSAISGSGGSTYYADSVKGRFTISRDNSKNTLYLQMNSLRAEDTAVYYCAKSTHLYLFDYWGQGTLVTVSSGGGGSGGGGSGGGGSGGGGSEIVLTQSPGTLSLSPGEKATLSCRASQSVSLHFLAWYQQKPGQAPRLLIYGASSRATGIPDRFSGSGSGTDFTLTISRLEPEDFAVYYCQQMRGRPPTFGQGTKVEIKAAAEQKLISEEDLNGAA | ~30 | 0.00923 | 304000

What follows are binders tested against T1, antigen (11A12) containing the ED-A … (assay: SPR (BIAcore analysis 1), bacterial supernatant of scFv over immobilised 11A12; flatter dissociation curve than the parent).
Procedure: The BIAcore Chip was flushed overnight at a flow rate of 5 μl/min with HBS-EP buffer BIACORE, 0.01 M Hepes pH 7.4, 0.15 M NaCl, 3 mM EDTA, 0.005% surfactant P20 (same buffer used for the assay). The antigen (11A12) was diluted to a concentration of 50 μg/ml in acetate buffer (pH 4.0) and the COOH groups on the chip were activated by injection of 50 μl of a mix of N-Hydroxy Succinimmide (NHS) and ethyl-N-(dimethylaminopropyl)-carbodiimide (EDC). 40 μl of the 11A12 antigen were injected onto the chip and the residual free COOH groups were blocked with 30 μl of ethanolamine. After a 0.22 μm filtration, 20 μl of each individual bacterial supernatant were injected onto the chip and interaction with the antigen was monitored in real time.
The association curves of antibodies H1, C5, D5, E5, C8, F8 and F1 were flatter than that observed for the parent anti-ED-A antibody while the association curve observed for antibodies B2, B7, E8 and G9 was as steep as the association curve observed for the parent anti-ED-A antibody. However, as bacterial supernatants of IFTG-induced E. coli TG-1 cells were used for the BIAcore analysis of antibodies H1, B2, C5, D5, E5, C8, F8, F1, B7, E8 and G9, the concentration of the tested antibody samples was unknown but most probably lower than the concentration of the parent anti-ED-A antibody sample used for comparison. Consequently, the association curve of antibodies H1, B2, C5, D5, E5, C8, F8, F1, B7, E8 and G9 may be artificially low due to the low concentration of antibody in the samples used for the BIAcore analysis.

Binder | binding result
anti-ED-A antibody E5 (scFv, scFv, tested as bacterial supernatant in BIAcore analysis 1) scFv: EVQLVESGGGLVQPGGSLRLSCAASGFTFSTGSMSWVRQAPGKGLEWVSAISGSGGSTYYADSVKGRFTISRDNSKNTLYLQMNSLRAEDTAVYYCAKSTHLYLFDYWGQGTLVTVSSGGGGSGGGGSGGGGSGGGGSEIVLTQSPGTLSLSPGEKATLSCRASQSVSLAHLAWYQQKPGQAPRLLIYGASSRATGIPDRFSGSGSGTDFTLTISRLEPEDFAVYYCQQMRGRPPTFGQGTKVEIKAAAEQKLISEEDLNGAA | binds
anti-ED-A antibody H1 (scFv, scFv, tested as bacterial supernatant in BIAcore analysis 1; Tags from the pHEN1 vector are not described) scFv: EVQLVESGGGLVQPGGSLRLSCAASGFTFSPRRMSWVRQAPGKGLEWVSAISGSGGSTYYADSVKGRFTISRDNSKNTLYLQMNSLRAEDTAVYYCAKSTHLYLFDYWGQGTLVTVSSGGGGSGGGGSGGGGSGGGGSEIVLTQSPGTLSLSPGEKATLSCRASQSVSSAWLAWYQQKPGQAPRLLIYGASSRATGIPDRFSGSGSGTDFTLTISRLEPEDFAVYYCQQMRGRPPTFGQGTKVEIKAAAEQKLISEEDLNGAA | binds
anti-ED-A antibody E8 (scFv, scFv, tested as bacterial supernatant in BIAcore analysis 1) scFv: EVQLVESGGGLVQPGGSLRLSCAASGFTFSDMHMSWVRQAPGKGLEWVSAISGSGGSTYYADSVKGRFTISRDNSKNTLYLQMNSLRAEDTAVYYCAKSTHLYLFDYWGQGTLVTVSSGGGGSGGGGSGGGGSGGGGSEIVLTQSPGTLSLSPGEKATLSCRASQSVSSSFLAWYQQKPGQAPRLLIYGASSRATGIPDRFSGSGSGTDFTLTISRLEPEDFAVYYCQQMRGRPPTFGQGTKVEIKAAAEQKLISEEDLNGAA | binds
anti-ED-A antibody F1 (scFv, scFv, tested as bacterial supernatant (E. coli TG-1) in BIAcore analysis 1) scFv: EVQLVESGGGLVQPGGSLRLSCAASGFTFSQARMSWVRQAPGKGLEWVSAISGSGGSTYYADSVKGRFTISRDNSKNTLYLQMNSLRAEDTAVYYCAKSTHLYLFDYWGQGTLVTVSSGGGGSGGGGSGGGGSGGGGSEIVLTQSPGTLSLSPGEKATLSCRASQSVSAPFLAWYQQKPGQAPRLLIYGASSRATGIPDRFSGSGSGTDFTLTISRLEPEDFAVYYCQQMRGRPPTFGQGTKVEIKAAAEQKLISEEDLNGAA | binds

— patent US20160083461A1 (PHILOGEN S P A, published 2016)
